{"source": "paper PMC4315244", "about": "(The Journal of Cell Biology, 2015)", "key": {"[1]": {"target": "Nup82-Flag-TEV-ProtA (S. cerevisiae, UniProt P40368 1-713)", "sequence (P40368 whole entry)": "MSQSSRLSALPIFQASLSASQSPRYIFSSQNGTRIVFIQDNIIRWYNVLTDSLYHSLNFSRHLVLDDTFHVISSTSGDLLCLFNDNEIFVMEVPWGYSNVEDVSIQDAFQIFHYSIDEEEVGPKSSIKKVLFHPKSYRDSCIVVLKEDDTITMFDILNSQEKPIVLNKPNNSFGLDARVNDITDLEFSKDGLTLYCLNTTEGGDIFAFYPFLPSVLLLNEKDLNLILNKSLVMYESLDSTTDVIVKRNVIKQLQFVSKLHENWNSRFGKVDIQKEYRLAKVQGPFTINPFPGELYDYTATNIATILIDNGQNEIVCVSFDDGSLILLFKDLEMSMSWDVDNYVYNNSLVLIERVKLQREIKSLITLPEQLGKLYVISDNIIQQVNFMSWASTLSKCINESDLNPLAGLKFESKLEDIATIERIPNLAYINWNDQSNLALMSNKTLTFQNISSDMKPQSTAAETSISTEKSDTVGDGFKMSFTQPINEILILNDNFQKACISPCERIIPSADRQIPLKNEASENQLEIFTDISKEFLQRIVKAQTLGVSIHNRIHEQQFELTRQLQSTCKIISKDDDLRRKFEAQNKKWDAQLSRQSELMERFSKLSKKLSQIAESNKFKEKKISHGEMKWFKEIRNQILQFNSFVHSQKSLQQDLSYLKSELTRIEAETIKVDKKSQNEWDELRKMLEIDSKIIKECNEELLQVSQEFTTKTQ", "experiment": "quantitative targeted mass spectrometry"}, "[2]": {"target": "Nup82 (of the Nup82–Nup159tail–Flag-Nsp1C complex) (S. cerevisiae, UniProt P40368 1-713)", "sequence (P40368 whole entry, one chain of several)": "as the sequence (P40368 whole entry) above", "experiment": "SEC-MALS"}, "[3]": {"target": "the molecule itself", "experiment": "AUC + SEC"}, "[4]": {"target": "the molecule itself", "experiment": "SEC-MALS"}}, "data": [{"binder": "Nsp1C (domain or fragment) not shown", "values": [{"measurement": "stoichiometry N", "setting": "[1]", "value": 1}]}, {"binder": "Flag-Nsp1C (domain or fragment) not shown", "values": [{"measurement": "stoichiometry N", "setting": "[2]", "value": 1}]}, {"binder": "Nup159C (domain or fragment, S. cerevisiae, UniProt P40477 1082-1460, looked up) EDINTDELPHGGEAFKAREVSASADFDVQTSLEDNYAESGIQTDLSESSKENEVQTDAIPVKHNSTQTVKKEAVDNGLQTEPVETCNFSVQTFEGDENYLAEQCKPKQLKEYYTSAKVSNIPFVSQNSTLRLIESTFQTVEAEFTVLMENIRNMDTFFTDQSSIPLVKRTVRSINNLYTWRIPEAEILLNIQNNIKCEQMQITNANIQDLKEKVTDYVRKDIAQITEDVANAKEEYLFLMHFDDASSGYVKDLSTHQFRMQKTLRQKLFDVSAKINHTEELLNILKLFTVKNKRLDDNPLVAKLAKESLARDGLLKEIKLLREQVSRLQLEEKGKKASSFDASSSITKDMKGFKVVEVGLAMNTKKQIGDFFKNLNMAK", "values": [{"measurement": "stoichiometry N", "setting": "[1]", "value": 1}, {"measurement": "stoichiometry N", "setting": "[3]", "value": 2}]}, {"binder": "Nup159-QT4–5-Linker-H1 (domain or fragment, S. cerevisiae, UniProt P40477 1150-1244, looked up) VKKEAVDNGLQTEPVETCNFSVQTFEGDENYLAEQCKPKQLKEYYTSAKVSNIPFVSQNSTLRLIESTFQTVEAEFTVLMENIRNMDTFFTDQSS", "values": [{"measurement": "stoichiometry N", "setting": "[4]", "value": 4}]}]}
